Assay results reported in US11738096B2, “Method of detecting diseased or damaged tissue with a pH-triggered polypeptide fluorophore composition” (University of Rhode Island Board of Trustees, priority 2016, dated 2023).
Where a SMILES comes first, the peptide text is derived from it. The star is where a group is joined. X1 = CC1(C)C(/C=C/C=C/C=C/C=C2/N(CCCCCC(=O)NCCN3C(=O)CC(*)C3=O)c3ccc4ccccc4c3C2(C)C)=[N+](CCCCS(=O)(=O)[O-])c2ccc3ccccc3c21

What was measured:
[1] = test system: 4T1 murine mammary carcinoma; assay: Tumor targeting in mice bearing 4T1 tumors; type: in vivo, mouse; settings: 20 μM, IV, 16 h
Description: Adult female nude mice and female BALB/cAnNHsd mice (Envigo), 20-25 g in body mass were used in the study. Mouse mammary cancer 4T1 cells were subcutaneously implanted in the right flank (8×10^5 cells/0.1 mL/flank) of adult female BALB/cAnNHsd mice. Rat bladder cancer AY27 cells were subcutaneously implanted in the right flank (8×10^5 cells/0.1 mL/flank) of adult female nude mice. When tumors reached approximately 5-6 mm in diameter, single tail vein injection or single intraperitoneal injection of fluorophore-pHLIP® solutions in PBS were performed. Fluorescent constructs were used in amounts of 100 μL of 40 μM, or 100 μL of 20 μM, or 100 μL of 10 μM, or 100 μL of 5 μM. Imaging of mouse was performed at 16 hours after constructs administration. Skin was removed from the tumor site just before imaging while animal was under gas anesthesia, and mice were euthanized immediately after imaging. Tumor, kidney and liver were harvested, imaged and used for histopathological analysis. Imaging was performed using Stryker clinical imaging instrument. Autofluorescence was established by imaging mouse with no injection of fluorescent constructs (the level of autofluorescence signal was insignificant compared to the signal after the constructs administration).

[2] = NIR fluorescence imaging of blood vessels and blood flow (ear, leg, blood samples) in mice; type: in vivo, mouse; settings: blood collected 5-120 min after IV injection
Description: Adult female nude mice (Envigo), 20 g in body mass were used in the study. Fluorescent constructs were given as a single tail vein injection in amounts of 100 μL of 40 μM in PBS. Imaging of mouse ear and leg was performed at 5, 30, 60, 90 and 120 min after construct administration. At 5, 30, 60, 90 and 120 min after construct administration 5 μL of blood was withdrawn from tail (and mixed with 5 μL of anticoagulating solution to preserve blood) while animal was under anesthesia. Mice were euthanized immediately after last imaging point (120 min). Blood collected from all animals was deposited on the glass slide, dried and imaged. Imaging was performed using Novadaq clinical imaging instrument. Autofluorescence was established by imaging mouse with no injection of fluorescent constructs (the level of autofluorescence signal was insignificant compared to the signal after the constructs administration).

[3] = test system: urothelial carcinoma in human bladder specimens; assay: Ex vivo NIR fluorescence imaging of radical cystectomy bladder specimens, 60 min instillation
Description: 22 urothelial carcinoma patients that were scheduled for radical cystectomy were selected over a twelve month period. After radical cystectomy, bladder specimens were immediately removed and irrigated 3 times for 5 min via catheter with non-buffered saline and instilled and incubated with 80 ml of 8 μM or 32.8 μg/ml (unless otherwise is stated, see notes to Table 8) of ICG-Var3 construct or ICG-Cys in PBS pH 7.4 containing 10 mM D-glucose for 60 minutes. Then, the unbound constructs were removed by rinsing with 80 ml of saline solution 3-5 times, the bladder was irrigated thoroughly with buffered saline and opened using a Y incision on the anterior wall. Using a da Vinci Si near-infrared fluorescence imaging system (Firefly^R), ex vivo fluorescent and white light imaging of the entire bladder and its parts was performed. The fluorescent spots were marked and standard pathological analysis was carried out to explore the correlation between appearance of fluorescent signal and cancer lesions.
The specimen was sectioned and submitted after 24 hour fixation in 10% phosphate-buffered formalin according to the standard institutional grossing manual, with emphasis on the marked areas of the bladder. The sections were processed for routine histology into paraffin-embedded blocks. […]
Statistical parameters were calculated according to the following equations: […]

CC(C)C[C@H](NC(=O)[C@H](Cc1ccc(O)cc1)NC(=O)[C@H](C)NC(=O)[C@H](CCCNC(=N)N)NC(=O)[C@H](Cc1c[nH]c2ccccc12)NC(=O)[C@@H]1CCCN1C(=O)[C@H](CC(N)=O)NC(=O)[C@H](CCC(N)=O)NC(=O)[C@H](CC(=O)O)NC(=O)[C@H](CC(=O)O)NC(=O)[C@H](CSC1CC(=O)N(CCNC(=O)CCCCCN2/C(=C/C=C/C=C/C=C/C3=[N+](CCCCS(=O)(=O)[O-])c4ccc5ccccc5c4C3(C)C)C(C)(C)c3c2ccc2ccccc32)C1=O)NC(=O)[C@H](C)N)C(=O)N[C@@H](CC(=O)O)C(=O)N[C@@H](CC(C)C)C(=O)N[C@@H](CC(C)C)C(=O)N[C@@H](Cc1ccccc1)C(=O)N1CCC[C@H]1C(=O)N[C@H](C(=O)N[C@@H](CC(=O)O)C(=O)N[C@H](C(=O)N[C@@H](CC(C)C)C(=O)N[C@@H](CC(C)C)C(=O)N[C@@H](CC(C)C)C(=O)N[C@@H](CC(=O)O)C(=O)N[C@@H](CC(C)C)C(=O)N[C@@H](CC(C)C)C(=O)N[C@@H](Cc1c[nH]c2ccccc12)C(=O)N[C@@H](C)C(=O)O)[C@@H](C)O)[C@@H](C)O (stereo partly drawn) [ICG-Var3] (H-AC(X1)DDQNPWRAYLDLLFPTDTLLLDLLWA-OH)
organ of clearance [1]: cleared by the liver | fluorescent signal in blood samples [2]: persistence of strong fluorescent signal within 2 hours | adverse morphological findings in specimens after incubation [3]: did not show any adverse morphological findings
